Data as given in the supplement of paper PMC9170038.

test system: MS2 coat protein; test: apparent KD of MS2 coat protein; higher = weaker reporter binding; details: Eterna round: R107; input ligand: arginine 13.2 mM
Procedure, shortened: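 Values are apparent KD, taken as the median for each design of fits to normalised binding curves from individual clusters. The designed RNA switches were transcribed on-chip from Illumina sequencing clusters and exposed to SNAP-549-labelled MS2 coat protein at twofold increasing amounts from 0.7 or 1.5 nM to 3 µM. Titration used 100 mM Tris-HCl pH 7.5, 80 mM KCl and 4 mM MgCl2, without or with constant ligand.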

Sequence | apparent KD of MS2 coat protein [nM]
UUCAGCUAGUCGGCCGCCACUACAUGAGGAUCACCCAUGUCGGUCCUCACUGCUUCGGCAGUGUGUAGGACCGGGACUAGCUGAG | 62
UCGCUCGCAGAAAUGCGAGCGAGUUGCGAUACCAGCCCGGAAACGGGCCCUUGGCAGCGCACAUGAGGAUCACCCAUGUCAUGUU [Exclusion - Theophylline A Attempt #2 (HarryS)] | 17.3
AACGAUUAAUCGGCCGCCACUCACAUGAGGAUCACCCAUGUUGUUCUUCCAGGUGGUUCUGUUCCGAGGACCGGGAUUCCGUCCU [theeternabot_exclusion_MS2_Trp_B_42] | 41.8
CACGAUUUGUCGGCCGCCACUAAGGUAACUCUUCUCACAUGAGGAUCACCCAUGUGCCCGAAGCUUAGGACCGGGAUAAUGGGUG [Dieson] | 32.3
CGGCCCUCACAUGAGGAUCACCCAUGUGAUACCAGCCUGGAAACAGGCCCUUGGCAGCACAGGUCAUCAAAAGAUGACCAAGCCG [TheoAX 21 #SwitchBubble] | 15.1
UAUGCACAUGAGGAUCACCCAUGUAUGGAAGGAGCGGUGAAUGAACCAGGUAGGUCGCCAUGGUGAGGAUCAUCUAUGUAUUCGU [Exclusion - Arginine A (Freestyle 8)] | 49.1
UGUAUGUGAUUUGAUACCAGACCAGCUGGUGGUAUCUGAGGAUCACCCAGGUAGGUUUGGGUCCCUUGGCAGCAAAUCGCAUACU [SS Theo B #24 Ms15] | 145
GUCUUUGACGAUCUGGGAAAACCAGAUCGACGAGGACCGGUACGGCCGCCACUCGUGUUUUCUUUACAUGAGGAUCACCCAUGUA [#17 Tryptophan A Same State] | 13.2
UGUAUGUGAUUUGAUACCAGUUCUGCUGGUAAAACAUGAGGAUCACCCAUGUUACUUUGGGACCCUUGGCAGCAAAUCGCAUACU [SSTheo B #27] | 90
UCCGGACGUUCGGCCGCCACUAAUUUACAUGAGGAUCACCCAUGUGCCAGUGGUCCGCAGAGUAAUAGGACCGGGAACCUUGGCU [theeternabot_exclusion_MS2_Trp_B_10] | 24.4
UUACAUGAGGAUCACCCAUGUCAUAACGAUACCAGAUAGUUAAUGAUCCCUUGGCAGCGUAAUACCUAGACAUUUAAGUCAUAGG [#25 SameState-TheophyllineA] | 35.3
AAUAUAAGUGUAAUUUUAUGUAUCUCUGAUACCAGACCCUCAUGUGUCCCUUGGCAGCAGUAACAUGAGGAUCACCCAUGUAAAA [JR_Nu_SSTheophyA_Sub023] | 30.7
UUUUUCGCGGGCGAUACCAGCUUGAUCGUACUGGCCUGGUACAUGAGGAUCACCCAUGUAAGCCCUUGGCAGCGCGCGCGAGAAG [#1 Exclusion - Theophylline B Attempt #2 (HarryS)] | 10.8
UGUCAGCGAAAGUUGACAUGUCUUACCGGUCGAGGACCGGUACGGCCGCCACUCGAUCUCUCGCACAUGAGGAUCACCCAUGUUG [SS Tryp A #22] | 19.3
AGUCUUGAACGAAGGAGCGACGUACAUGAGGAUCACCCAUGUGGGAGCGAAAGCUCCCAACGUCAGGUAGGUCGCGUUCGAGACA [SS-ArgB29] | 16.9
AAAUAAAUACAUGAGGAUCACCCAUGUGAAGGAGCGCGCGUUAGCGCAGGUAGGUCGCACAUGAACUCCAAAGUGCAAAAGCACA [MAT - Exclusion Arginine A - Mod of Eli - D8] | 19.7
ACACAUGAGGGAAGGAGCGCCAUGAACACACAUGAGGAUCACCCAUGUUUUUUUUGUGUUUGGCAGGUAGGUCGCCCACAUGAGG [Same State Arginine B 2] | 7.38
GUCAGUGACAGAAGGAGCGACAUGAGGAUCACCCAUGUCUCCCGUUAUGGGAGUUCCUUAGGUCAGGUAGGUCGCUGUCACUGAC [#1 Exclusion - Arginine B Attempt #30 (Inspired by Omei)] | 227
GUGCUGGUAUCGGCCGCCACUGUAACAUGACAUCCCAGGGCCGACAUGAGGAUCACCCAUGUUAACAGGACCGGGAUAUCAACGA [Riorquen] | 13.2
CACGGACGAGUGGAUCACCCUCGUAAUAACCGAGGACCGGUACGGCCGCCACUCGAAAACCGUGACCUGUACGAAAAGUGCAGGA | 56.1
GGUGGGACUUGUGAUACCAGCCUAAUUCUAAACGAAUUGCACAUGAGGAUCACCCAUGUCGGCCCUUGGCAGCAUGAGUAUUUAU [Anartiison] | 73.3
AUGCAUGUCAGAAGGAGCGUCUUUAACAUGAGGAUCACCCAUGUAACAUUGAAUUCGAUGAGACAGGUAGGUCGCUGAAUAGUAA [JR_SSArginiB_Sub020] | 21.1
GCGUUGGUCGGAAGGAGCGACAUGAGGAUCACCCAUGUCUCCCGUUAUGGGAGUUCCUUAGGUCAGGUAGGUCGCCGACUGACGC [#1 Exclusion - Arginine B Attempt #20 (Inspired by Omei)] | 96.1
CUUGAGACAUGAGGAUCACCCAUGUCCGAAGGAGCGUGCGAAAGCACAGGUAGGUCGCGGACAUGAGGAUCACCCAUGUGAGCGA [EAA NP+V+V2 #7 DOUBLE] | 13.8
ACGUCCGGAUUAAUCGUGGGCAUGGUCGAUACCAGUAUUUUAAUCUACCCUUGGCAGCGACAUGAGGAUCACCCAUGUGCGAUGA [XTheo A #18] | 14.3
UAAGUUAGGGCGGCCGCCACUCGAACAUGAGGAUCACCCAUGUAAAUUAAUUAAAGGACAUGAAUGAGGACCGGGCCAAGUUAGA [Same State - Tryptophan B / A] | 13.9
GGCCCUGCGAGCGCUCGCAGGGCCGCGGAUACCAGCGAGGUCCAUCGCCCUUGGCAGCCGAACAUGAGGAUCACCCAUGUCGGUU [#1 Same State - Theophylline A Attempt #12 (HarryS)] | 5.98
CCUGCGUUUCUUUUCUUUCGCAGGAAUGAUACCAGUAGGGAAACCUACCCUUGGCAGCAUGGGACAUGAGGAUCACCCAUGUUAU [SSThA NP+V+V2 #3] | 167

same assay, conditions: Eterna round: R107; input ligand: none

Sequence | apparent KD of MS2 coat protein [nM]
UAUGCACAUGAGGAUCACCCAUGUAUGGAAGGAGCGGUGAAUGAACCAGGUAGGUCGCCAUGGUGAGGAUCAUCUAUGUAUUCGU [Exclusion - Arginine A (Freestyle 8)] | 81
UGUAUGUGAUUUGAUACCAGACCAGCUGGUGGUAUCUGAGGAUCACCCAGGUAGGUUUGGGUCCCUUGGCAGCAAAUCGCAUACU [SS Theo B #24 Ms15] | 186
UUUUUCGCGGGCGAUACCAGCUUGAUCGUACUGGCCUGGUACAUGAGGAUCACCCAUGUAAGCCCUUGGCAGCGCGCGCGAGAAG [#1 Exclusion - Theophylline B Attempt #2 (HarryS)] | 11.5
AGUCUUGAACGAAGGAGCGACGUACAUGAGGAUCACCCAUGUGGGAGCGAAAGCUCCCAACGUCAGGUAGGUCGCGUUCGAGACA [SS-ArgB29] | 17.7
AAAUAAAUACAUGAGGAUCACCCAUGUGAAGGAGCGCGCGUUAGCGCAGGUAGGUCGCACAUGAACUCCAAAGUGCAAAAGCACA [MAT - Exclusion Arginine A - Mod of Eli - D8] | 22.8
ACACAUGAGGGAAGGAGCGCCAUGAACACACAUGAGGAUCACCCAUGUUUUUUUUGUGUUUGGCAGGUAGGUCGCCCACAUGAGG [Same State Arginine B 2] | 10.1
GUCAGUGACAGAAGGAGCGACAUGAGGAUCACCCAUGUCUCCCGUUAUGGGAGUUCCUUAGGUCAGGUAGGUCGCUGUCACUGAC [#1 Exclusion - Arginine B Attempt #30 (Inspired by Omei)] | 215
CACGGACGAGUGGAUCACCCUCGUAAUAACCGAGGACCGGUACGGCCGCCACUCGAAAACCGUGACCUGUACGAAAAGUGCAGGA | 88.7
AUGCAUGUCAGAAGGAGCGUCUUUAACAUGAGGAUCACCCAUGUAACAUUGAAUUCGAUGAGACAGGUAGGUCGCUGAAUAGUAA [JR_SSArginiB_Sub020] | 82.8
GCGUUGGUCGGAAGGAGCGACAUGAGGAUCACCCAUGUCUCCCGUUAUGGGAGUUCCUUAGGUCAGGUAGGUCGCCGACUGACGC [#1 Exclusion - Arginine B Attempt #20 (Inspired by Omei)] | 209
CUUGAGACAUGAGGAUCACCCAUGUCCGAAGGAGCGUGCGAAAGCACAGGUAGGUCGCGGACAUGAGGAUCACCCAUGUGAGCGA [EAA NP+V+V2 #7 DOUBLE] | 21.8
GGCCCUGCGAGCGCUCGCAGGGCCGCGGAUACCAGCGAGGUCCAUCGCCCUUGGCAGCCGAACAUGAGGAUCACCCAUGUCGGUU [#1 Same State - Theophylline A Attempt #12 (HarryS)] | 11.2

same assay, conditions: Eterna round: R107; input ligand: theophylline 20 uM

Sequence | apparent KD of MS2 coat protein [nM]
UUCAGCUAGUCGGCCGCCACUACAUGAGGAUCACCCAUGUCGGUCCUCACUGCUUCGGCAGUGUGUAGGACCGGGACUAGCUGAG | 93.6
UCGCUCGCAGAAAUGCGAGCGAGUUGCGAUACCAGCCCGGAAACGGGCCCUUGGCAGCGCACAUGAGGAUCACCCAUGUCAUGUU [Exclusion - Theophylline A Attempt #2 (HarryS)] | 24.7
AACGAUUAAUCGGCCGCCACUCACAUGAGGAUCACCCAUGUUGUUCUUCCAGGUGGUUCUGUUCCGAGGACCGGGAUUCCGUCCU [theeternabot_exclusion_MS2_Trp_B_42] | 70.6
CACGAUUUGUCGGCCGCCACUAAGGUAACUCUUCUCACAUGAGGAUCACCCAUGUGCCCGAAGCUUAGGACCGGGAUAAUGGGUG [Dieson] | 150
CGGCCCUCACAUGAGGAUCACCCAUGUGAUACCAGCCUGGAAACAGGCCCUUGGCAGCACAGGUCAUCAAAAGAUGACCAAGCCG [TheoAX 21 #SwitchBubble] | 20.5
UAUGCACAUGAGGAUCACCCAUGUAUGGAAGGAGCGGUGAAUGAACCAGGUAGGUCGCCAUGGUGAGGAUCAUCUAUGUAUUCGU [Exclusion - Arginine A (Freestyle 8)] | 101
UGUAUGUGAUUUGAUACCAGACCAGCUGGUGGUAUCUGAGGAUCACCCAGGUAGGUUUGGGUCCCUUGGCAGCAAAUCGCAUACU [SS Theo B #24 Ms15] | 892
GUCUUUGACGAUCUGGGAAAACCAGAUCGACGAGGACCGGUACGGCCGCCACUCGUGUUUUCUUUACAUGAGGAUCACCCAUGUA [#17 Tryptophan A Same State] | 15.7
UGUAUGUGAUUUGAUACCAGUUCUGCUGGUAAAACAUGAGGAUCACCCAUGUUACUUUGGGACCCUUGGCAGCAAAUCGCAUACU [SSTheo B #27] | 119
UCCGGACGUUCGGCCGCCACUAAUUUACAUGAGGAUCACCCAUGUGCCAGUGGUCCGCAGAGUAAUAGGACCGGGAACCUUGGCU [theeternabot_exclusion_MS2_Trp_B_10] | 30.8
UUACAUGAGGAUCACCCAUGUCAUAACGAUACCAGAUAGUUAAUGAUCCCUUGGCAGCGUAAUACCUAGACAUUUAAGUCAUAGG [#25 SameState-TheophyllineA] | 63.2
AAUAUAAGUGUAAUUUUAUGUAUCUCUGAUACCAGACCCUCAUGUGUCCCUUGGCAGCAGUAACAUGAGGAUCACCCAUGUAAAA [JR_Nu_SSTheophyA_Sub023] | 103
UUUUUCGCGGGCGAUACCAGCUUGAUCGUACUGGCCUGGUACAUGAGGAUCACCCAUGUAAGCCCUUGGCAGCGCGCGCGAGAAG [#1 Exclusion - Theophylline B Attempt #2 (HarryS)] | 17.7
UGUCAGCGAAAGUUGACAUGUCUUACCGGUCGAGGACCGGUACGGCCGCCACUCGAUCUCUCGCACAUGAGGAUCACCCAUGUUG [SS Tryp A #22] | 29
